This is an account of results in the DeepSol protein solubility set.

A short description of this series: soluble on expression in E. coli; label from the status in PepcDB or PDB records.
As for “MGSDKIHHHHHHMKKFVCSNCGYVSPKWFGRCPQCGEYDTAEEVQRRKNREGSPSLFLNLEDAGEISLERLSTGFSELDRAFRGGIVPGQVILLSGEPGIGKSTIALQIAERFAERGLVVYVSGEESPQQLKLRADRLLLKRKKDILLTLENDIDEIISSLQNKRVSFMVVDSIQTVFSSDLGSSPGSISQVKNVTMKTIDFAKRRGVPVLLVGHVTKEGEIAGPKLVEHMVDTVAYFEGDRRTGLRLLKITKNRFGPSDEVAVFELKENGFVQVENPSFTEGDADLPGNVLTCVFEGTKPFVVQIQALVSKNRTFSPKRVCKGVDVNRVMLLIAVISKYLKLPIETHDVYVNVVGGLRVTDPAADLAIALSIVSSYLEVSLHNTAAVGEIGLDGRVRKVYNINRRLNSLKSSGRIIVPPIEEEQKGVFEVRDLKEAVSIIGGEILGTPGAD”, the “soluble on expression in E. coli” value was “not soluble”.

On to “MEATGLITEYNPFHNGHLYHLKKAQELTKADVTIVLMSGNWVQRGLPAITDKWKRAQAAIDAGADLVFELPFYYAVQAGEIFAQGAVRLLSDLQVSSIICGSEHADIDFINLAAHEPDISGNSNFDKKNRTFASNYAAALEEKTGFYLENANDILAFSYAKAILNQNLTEKIKLRTISRVSADYHDQFLNDGEIASATAIRKALSEGQNVDSYTPMSDLQY”, for which the “soluble on expression in E. coli” value was “not soluble”.

With “DIECPTCGRPMGIRTASTGVFLGCSGYALPPKERCKTTINLGDEEGIINVLEEDVETAALRAKKRCPICETAMDAYLIDDKRKMHVCGNNPNCEGYVVEYGEFKVKGYDGPVVECDKCGSDMVLKNGRFGKYMDCTSETCKNTRKILK”, the “soluble on expression in E. coli” value is given as “not soluble”.

Turning to “MVAAPPAVGAAMPSLDFDTSVFNKEKVSLAGHEEYIVRGGRNLFPLLPEAFKGIKQIGVIGWGSQGPAQAQNLRDSLAEAKSDIVVKIGLRKGSKSFDEARAAGFTEESGTLGDIWETVSGSDLVLLLISDAAQADNYEKIFSHMKPNSILGLSHGFLLGHLQSAGLDFPKNISVIAVCPKGMGPSVRRLYVQGKEINGAGINSSFAVHQDVDGRATDVALGWSVALGSPFTFATTLEQEYKSDIFGERGILLGAVHGIVEALFRRYTEQGMDEEMAYKNTVEGITGIISKTISKKGMLEVYNSLTEEGKKEFNKAYSASFYPCMDILYECYEDVASGSEIRSVVLAGRRFYEKEGLPAFPMGNIDQTRMWKVGEKVRSTRPENDLGPLHPFTAGVYVALMMAQIEVLRKKGHSYSEIINESVIESVDSLNPFMHARGVAFMVDNCSTTARLGSRKWAPRFDYILTQQAFVTVDKDAPINQDLISNFMSDPVHGAIEVCAELRPTVDISVPANADFVRPELRQSS”, the “soluble on expression in E. coli” value is given as “soluble”.

“MASIADAIGKILTAHSPYPAVVVDRHWNMVDANDAVAVLTEGCAAELLEPPVNVLRLSLHPDGMAPRILDLAQWRGHLLHRLRHQIAVTGDDGLRDLLRELEGYPGGTVGSAELPGSLVVPLRIRHHETVLAFLSTTTMFGTPLDVTVAELAIESFFPADAVTAATLRSSVSSD”: the “soluble on expression in E. coli” value was “soluble”.

With “GMNLANIVQRGWEALGAGDFDTLVTDYVEKMIFIMPGQADVLKGRQAFRSALDNLGEILPPGFEITGLRQLEGENEIVSIVEWKSDKMIASQLSVLFKFEGDQIYEERWFVDTEQWKSVF”, the “soluble on expression in E. coli” value is “soluble”.

In the case of “LLGLGVGPGDPELITLKALRLLRAAPVVGYFVAKGKKGNAFGIIEAHLDQAQVRLPLVYPVTTEKLEPPLCYETIISDFYDTAAEQLAAHLDAGRDVAVICEGDPFFYGSYMYLHDRLATRYESEVVPGVCSMLGGAAVLGAPLVYRNQSLSVLSGVLPEEELRRRLADADAAVVMKLGRNFDKVRRVLVELGLERRALYVERATMANQRIVPLERVEPMASPYFSLIVVPGDKWQGGAGGE”, the “soluble on expression in E. coli” value is “not soluble”.

Regarding “MRYTGYMMEVRQLRHFVTVAEWESFTLAAQQLHIAQPALSISIKKFEQQLGVTLFKRDERKVALTHEGEVLLEHAKRILQQVNDAQLAVDELKGVVKGEVRLGAPSMMGSYFFPQIIMAFKSHFPNLKMTVIEAGTQSIRRMLLSGELDIGVILNHDLPDDLAADPLLSSQMVAVVGKNHELAERRHLTFAEFFEHELVMFKPGYFHRDFIDKVCREHKFTADFSFETNLLPMILSIVKHEYAITALLELVTSNEPEVKAIPFEPPVWLDLALAWRKEGYLSNADRTFIEFVKKYV”, the “soluble on expression in E. coli” value was “not soluble”.

Turning to “MRMRLMLLGGGNALGQALIRLGAEEDIAFLAPRPPENGWAPSSLTQLLDDHRPDALVNLAYYFDWFQAESVSEQRLAQQERAVERLAELCQHHQITLVQPSSYRVFDGSRATAYSEKDEPVPLGLRGQALWRIEQSVRAACPQHVLLRFGWLLDESIDGALGRFLTRAEQPQELLLADDRRGNPTPVDDAARVILSVLKQLDCNAPLWGTYHYAGNEATTPLALGQAILAEAGQYRQLAVQAPTPQAHAARPDASEEPQHAVLACKKILHTFGIKPRAWRAGLPPLLDRFYRHG”, the “soluble on expression in E. coli” value was “not soluble”.

With “MTQNINQLAVNTIRTLSIDAINAANSGHPGLPMGAAPMAYALWANHLNHNPNHPKWFNRDRFVLSAGHGSSLLYSLLHLAGYDVSIDDLKNFRKLNSKTPGHPEFGHTSGVEATTGPLGQGIANAVGMAMAEAHLAAKFNKDGHSIIDHNTYALVGDGDLMEGVAYEAMSMEGVAYEAMSMAGHMKLGKLIVLYDSNEISLDGELNIAFSEDMQKRVESAHWQYVRVEDGNDVDAITKAIQLAKDNTDQPTLIEIRTVIGYGSPKVAGTNKAHGNPLGLEEATATKQVYGWHYEEDFFVPEEVTAHFNELKQKGIEKERGWNEQFNLYRESNPALADELEKAIIGEVLIEAKDILSFDSEKTISTRVASGEAINHYVKSIPSIFGGSADLSHSTMTDIKGEAVYAVESYAGRNIYFGVREHAMGAAANGLALHGGVKPFVSTFFVFNDYLRPSIRLAALQKLPVTYVFTHDSIAVGEDGPTHEPIEHLAALRAIPGLTVIRPSDANETASAWAYALQQTEGPVVLVLSRQNLPVFHETKANIENLSKGAYVLTQTNENPDVILIATGSEVSLAASAKAKLEEDNVSVRIVAMPSWELFDRQSKEYKESVLPSSVTKRVSLEMGVSLGWERYVGQEGNILSIETFGASGTGAEVMNLFGFTTENVVQITKNVLNS”, the “soluble on expression in E. coli” value is reported as “not soluble”.

As to “MALSKTIATVTRRICERSAPTREIYLDRIAKAQANHPKRSFLGCANQAHGFAACGSIDKKRLKRNIVGNIGIITAYNDILSAHQPFESFPHLIKETARMFGGVAQVAGGVPAMCDGVTQGNTGMELSLFSRDVIAMATAIGLSHDMFDAALYLGVCDKIVPGLVIGALTFGHLPGIFVPAGPMTSGQGNDEKAKIRQLYAENKIDRQTLLESEARSYHGPGTCTFYGTANSNQVILEMMGLHMPGSSFINANTPLRDALTKEATKRVLEMIALGDSYSPIGLIVDERSFVNAVVGLNATGGSTNHAIHLIAMAAAAGILLTWHDIAEISSVVPLLARIYPNGLADINHFHAAGGMGFVIRELIEAGLVHEDVCTVFGKDLNAYAIEAKLCNDDNVVREPALNESANHKVLTGWRKPFQSDGGIRILLGDLGTAIMKVSSVKSEYWRIEAPVLVFNDQEELQEAFKAGVLNDKDFIAVIRYQGPKANGMPELHKLTTILGVLQDRGQKVALVTDGRMSGASGKIPAAIHVTPEALDDGPIARLQNGDVVCLDAHVGKLAILEDKVEFNARKITLPDLSKNEYGVGRELFRIFRHSVNRADQGASVLIA”, the “soluble on expression in E. coli” value is “not soluble”.

Turning to “EFSLSTLLEMTVGLASGANNEERFHRLLDAVRKAVICDCVVLMSLHNDTLTPLAMQGLTRDTLGRRFVVSEHPRLAQICSADLPVRFAADCPLPDPFDGLLLDSEDDLPMHSCMGLPLHFGEQLLGILTLDSLKPDAFDHLSPRSLEILAAIAAATLKMTLTFSELENQAKQTQLRLEELNQEAWSRDSVE”, the “soluble on expression in E. coli” value is recorded as “not soluble”.

Turning to “MGHHHHHHSHMKESAHLAISWLRSNAKKYQLTNAFGSFDLLDNTDIHLHFPAGAVTKDGPSAGVTIVTCLASLFSGRLVRSDVAMTGEITLRGLVLPVGGIKDKVLAAHRAGLKQVIIPRRNEKDLEGIPGNVRQDLSFVTASCLDEVLNAAFDGGFTVKTRPGLLNSKL”, the “soluble on expression in E. coli” value is “not soluble”.

With “MPTNCAAAGCATTYNKHINISFHRFPLDPKRRKEWVRLVRRKNFVPGKHTFLCSKHFEASCFDLTGQTRRLKMDAVPTIFDFCTHI”, the “soluble on expression in E. coli” value is reported as “soluble”.

“SEVERKIVSLEALYIVYDADGTVAGELLYLLRKWLGKGHCAACDITHGPRKVKPEWTILQKTGWLGVPLFNIHRDEMEPKLRSAVSCALPCVAALVDNGDYVLLLQPEDLESCKGQVSKLQEKIVEALKDFGFQVNESFTSVVTSDLSDTCPSTLDREKEEDDAVVPF”: the “soluble on expression in E. coli” value was “soluble”.
